Laboratory results reported in the DeepSol protein solubility set.

test: soluble on expression in E. coli; label from the status in PepcDB or PDB records

Q: Which “soluble on expression in E. coli” value does the source give for “MAHHHHHHMLRRLGAGTNGQVRRSASSVSYGYLNLTVSDKIMPYVEGLKKKVIYVSSSKDCKAYVQEIQKGVQAGKINCIGLDVEGYKIGRNGTVSIIQVCTQDVYLFDLYKCDNSYLFVKCLKELLEDRRVIKITHDCREDCSILFNQYSICLNRTFDTQVAFNLLLKETKKDLYQISYDDLLYKCLLLNNKHKIYFHKMISLDQKIYLKRPIAKELIQYAIQDVIYLKPLMWSLVDRLLRVCKDGEAGREPFGEDGEARSNPFGEDGEARSNPFGEENPRSIKNGDDVMSEGAHSNLSEHKTNIIKRVTRLSERYINYQFLNTHVKNEKELQKGMTLDGMVVSCNNLNLYVKLNLSRRGVITNCMRNDFEIGDVVKCVILGFCNNDYIKLGLCDPSLCAVKREEGR” here?
A: Its value is “not soluble”.

Q: For “MKKIKTISTLVAGLGIAFLGHTTHADAAENNNQQQSTHNYSTTEVSFSNSGNLYTSGQCTWYVYDKTGGKIGSTWGNANSWATAAQAAGFTVNNTPEEGAIMQSSEGAFGHVAFVESVNNDGSITVSEMNYDGGPFAISTRTISASEASSYNYIHLNLEHHHHHH”, which “soluble on expression in E. coli” value is on record?
A: Its value is “not soluble”.

Q: With “ARYLDVTSRRDPEHSHRTYYVTGQVFFASADRFTASFDLREKVETLAIDLREAHFWDITAVAALDKVVLKLRRAGISVDVVGMNRATATLVDRFGVHDKPDGIDSLMGH” as the sequence, how does the “soluble on expression in E. coli” value read?
A: The value was “not soluble”.

Q: With “MEEGSAIDYQRVPPLSGTHYASTVSAGFYEATPLLGSLVHTLEHGAVIVYYDPDEISPEARQSLREFSSVHTGTWRSVVAVPNPNDDPRATYVVTAWQHELTIDSYDAETVHAFLSEYLGRGPENPVRLEHHHHHH” as the sequence, how does the “soluble on expression in E. coli” value read?
A: Its value is “soluble”.

Q: Which “soluble on expression in E. coli” value does the source give for “MGSDKIHHHHHHMTRSGIGIRTAQQQSGRLTGQIHVYDGAGKGKSQAALGVVLRSIGLGIRDQWQSRVLLLRFLKGPGRTYDEDAAIEALQQGFPHLIDQVRTGRAEFFGPDAISRFDRQEARRGWDIAKGAIVSGLYSVIVLDELNPILDLGLLPVDEVVQTLRQKPPQVEVIATGRGAPPQLLEIADLHSEMIAHANPAVAPVGMEGIEIYTGEGKGKSTSALGKALQAIGRGIGQDLSHRVLILQWLKGGSGYTEDAAIQALRQSYPHLVDHQRSGRDAIVWRGQQQEIDYIEAERAWEIARAAIASGLYKTIILDELNPTVDLELLPEEPILQALLRKPRDTEVIITGRCKQIPAYFHLASVHSEMVCHKHYAERGIELKRGVDY” here?
A: Its value is “not soluble”.

Q: For “MGSDKIHHHHHHMFYQLYEMNHAMMAPWRTAADAMRLAFSNPMNPVSHTYFGRAAAAGLEVFERATRRYGKPEFGLPETEIDGQPVPVRERIVWREPFCNLIHFERSLPRDRAPDPKVLIVAPMSGHYATLLRGTVEALLPHSDVYITDWIDARMVPLSEGTFDLDDYIDYVIQMLHFLGPDAHVIGVCQPAVPVLAAVALMEAAEDPLAPSTMTLMGGPIDTRINPTAVNELAKERPIEWFRDNVVMPVPWPQPGFMRMVYPGFLQLSGFMSMNLDRHLIAHKEFFAHLVKNDGDAAEKHRDFYDEYLAVMDLTAEFYLQTVQVVFMQHALPKGEMIHRGKRVDPTAIRRVALLTVEGENDDISGLGQTKAAQTICTGIPDSMRQHYMQPDVGHYGVFNGSRFRREIAPRIVAFQRRHSRHAKPVKQLIKGGKSA”, which “soluble on expression in E. coli” value is on record?
A: The value was “not soluble”.

Q: With “MGSDKIHHHHHHMPSERASSFDIMLWVLSGCSELLYGTQALPLTGKVDRIFGPAREPRDVRVLNYLELADRLDRSGIGTAVDHQRAALSETDIEVETTPWQEGHPAWALGGNIAFNDPMFREFDIAHCNMIGPGSVAVARYAAQADIPLVLHAHVTREDFRDSFRGSNLIAPVLGRYLRWFYSQADLVLCPSEYTKGILESYPVDAPIRPMTNGVDIDALAGHEDMREDYRRRYDLDGMVVFAVGNVFERKGLTTFCELAQETEHDFAWFGPYDAGPQASKTVSRWVNNPPENVTFTGWVEDIRGAFGAGDVYLFPTKAENQGIAVLEAMACGKAVVLSDIPVFREYYEDGHDCLICADEAEFREALERLAENPDLRERLGENARETAREHSLDRVSRRLVETYEELA” as the sequence, how does the “soluble on expression in E. coli” value read?
A: The value was “not soluble”.

Q: With “SNAVTATQLAAKATTLYYLHKQAMTDEVSLLLEQALQLEPYNEAALSLIANDHFISFRFQEAIDTWVLLLDSNDPNLDRVTIIESINKAKKLM” as the sequence, how does the “soluble on expression in E. coli” value read?
A: The value was “soluble”.

Q: With “MPLIAGIDIGNATTEVALASDYPQARAFVASGIVATTGMKGTRDNIAGTLAALEQALAKTPWSMSDVSRIYLNEAAPVIGDVAMETITETIITESTMIGHNPQTPGGVGVGVGTTIALGRLATLPAAQYAEGWIVLIDDAVDFLDAVWWLNEALDRGINVVAAILKKDDGVLVNNRLRKTLPVVDEVTLLEQVPEGVMAAVEVAAPGQVVRILSNPYGIATFFGLSPEETQAIVPIARALIGNRSAVVLKTPQGDVQSRVIPAGNLYISGEKRRGEADVAEGAEAIMQAMSACAPVRDIRGEPGTHAGGMLERVRKVMASLTGHEMSAIYIQDLLAVDTFIPRKVQGGMAGECAMENAVGMAAMVKADRLQMQVIARELSARLQTEVVVGGVEANMAIAGALTTPGCAAPLAILDLGAGSTDAAIVNAEGQITAVHLAGAGNMVSLLIKTELGLEDLSLAEAIKKYPLAKVESLFSIRHENGAVEFFREALSPAVFAKVVYIKEGELVPIDNASPLEKIRLVRRQAKEKVFVTNCLRALRQVSPGGSIRDIAFVVLVGGSSLDFEIPQLITEALSHYGVVAGQGNIRGTEGPRNAVATGLLLAGQAN” as the sequence, how does the “soluble on expression in E. coli” value read?
A: Its value is “soluble”.

Q: For “MFQIYEIFSSVFNFDPKMPENVGVKEDDDKVFAKEIAQLEEEFEANTLKAESLEKEIAYSKVQIETENVKFAAIEQEKAIEIIKLEKQIKIMEAKLDFMKQDPIEIEEIEKLKHRVEEETQRNTEYAESLKYIKEMIRIKKAEKNEKKQKNAIDN”, which “soluble on expression in E. coli” value is on record?
A: The value was “not soluble”.

Q: For “MGSDKIHHHHHHALKKIYPHATNVSWSQQGNYYVASFTQNGFEKEVWMNGNAQWVMTNTDLQTTDQLTPNVYNDFTLSPYAMWTATNVNLIEFPKRTTLYVITVNLNNSSATKQLFYTLNGRLLQTRDVSYINPTLSPGIFEF”, which “soluble on expression in E. coli” value is on record?
A: The value was “not soluble”.

Q: For “MGSDKIHHHHHHMGVEHMRGFSNEIILKRTLTLSDFTLRYHKRGITALQVIKAPSVSNVPVLLSGDNYGYFVMWDLVTKRPITHIEIEGNSHIIAFWWVETTNVLYILSKDSMLRIFELDSSTQLSIDLVRKLSQANKTDHLQWTKIYEMPINTLNFANFIIEAEVKPTKDNKSYRLVCCHTDDSETIDIYQIIEDSTFKLKRPFNNINFPRFLKQQNFLGISKDSKFGIIMRFAKLNDVIFLGYENGFVVGFKITFDEGLQRDIAELVHVSNDHYPNPILDMCVSGDELYSCSTDDFITKYKIPVNLQLETKYLRDDALLIKCPSSLRVSEPSKVHLPLKNIGHIDKVKDDYLVVSSWSGMTIVYNMRTSEVEQTFVKSKNNLVVSDSSMGDLTNGSGSNTESSSKSHNYKVGAMTCLESFDVQSDGLRLGQLRRIKALAKCNWCLIGYEDGTIKLNKI”, which “soluble on expression in E. coli” value is on record?
A: The value was “not soluble”.

Q: With “MNYSHPISLKTLVQEDDIGVNAPIIHQSVIARLTAGLYPLYQSKKIPFEPLPETMLTEGYSSPVPDVLLYDHQTEEAKVIIEVCQNSGLKHDTSKIVKLIEDNAYGILEGFVFNYKTQQWLRYRLGDGGVATNSSFSEVLQVDLNTFV” as the sequence, how does the “soluble on expression in E. coli” value read?
A: Its value is “soluble”.

Q: With “MSLNGPLKIGYYKIGAAYRDGKGYDVDMVRELARRLGCPIANETELPRLRALKMLETGQIDVSASTLATPDRLQYAWIYQYNHAKNMVLLNPAIQARTLATLLEDPALRWGAIRGYHHGPSQDKLLEELNARHKVVIANDEDDLYKMLGNGVVTAVFAQPFSYGRWLRELPNPNQIVVLDLYPETDMVASGLALSKARFSREAAEKWHQELLKMYQDGSLYDIMRRYLNEGHHHHHH” as the sequence, how does the “soluble on expression in E. coli” value read?
A: The value was “not soluble”.

Q: Which “soluble on expression in E. coli” value does the source give for “MALEFTTLPQLYAHDYDTVIDVRSPAEFAEDHLPGAINLPVLDNEERARVGTIYKQQSPFLARKLGAALVFRNAASHVEQSLSHHEGHWRPLVYCWRGGQRSGSFTWMLQQIGWRAEVVSGGYRTYRRLVNRYLYEDPLPHRLVALDGFTGTAKTEILARLPALGVQMLDLEALANHRGSLLGARPGGQPEQKAFESALAAALCRLDPTRPVVVEAESSRIGERILPPSLWAALCAAPRIEIEAPVAARSAYLTAAYDDILSDAETLTARLDPLRYHRGHAVVEGWLALVAAGDKHGVTRALMEQHYDPAYRKSRASHAVQVAARLRSDTLDHAGIDTLTAQVAAVLKAL” here?
A: Its value is “not soluble”.

Q: With “HDDGLPAFRYSAELLGQLQLPSVALPLNDDLFLYGRDAEAFDLEAYLALNAPALRDKSEYLEHWSGYYSINPKVLLTLMVMQSGPLGAPDERALAAPLGRLSAKRGFDAQVRDVLQQLSRRYYGFEEYQLRQAAARKAVGEDGLNAASAALLGLLREGAKVSAVQGGNPLGAYAQTFQRLFGTPAAELLQPSNRVARQLQAKAALAPPSNLMQLPWRQGYSWQPNGAHSNTGSGYPYSSFDASYDWPRWGSATYSVVAAHAGTVRVLSRCQVRVTHPSGWATNYYHMDQIQVSNGQQVSADTKLGVYAGNINTALCEGGSSTGPHLHFSLLYNGAFVSLQGASFGPYRINVGTSNYDNDCRRYYFYNQSAGTTHCAFR” as the sequence, how does the “soluble on expression in E. coli” value read?
A: The value was “not soluble”.

Q: For “MKIKSIEPTPSPNTMKVILTEELPAGKSNNYKPEQAEGAPLVIAEILKIDGVKGVYHVADFLAVERNARYDWKDILPQVRTAFGMESAESAEENRSDQESFGEVKVFVQMFSGIPMQVKLTDGEREERFGLPERFQQAILKLRSEASNVVFERAWKEQGVRFGDFDEIGHDVTEELQAAYSDERLKRLTEAAAQGKGEAKQAVQRKAYKVTLDMLDDEDWKKRYAHLEQMDPKEEDIPVLQKALDDPKVSIRRQAVVYLGMIETPDVLPLLYKALEDKAVSVRRTAGDCLSDIGDPQAIPAMIKSLSDSSKLVRWRAAMFLYEVGDESAIEALRAAEDDPEFEVSLQVKMALERIEHGEEAKGSVWKQMTESRKKGE”, which “soluble on expression in E. coli” value is on record?
A: Its value is “soluble”.

Q: Which “soluble on expression in E. coli” value does the source give for “MDDLEGKKCIGCQKPAKLRCPTCIKMSLPDAYFCDQSCFKAFWPIHKFSHSDVNGPYNPWPCYSFTGSLRPGRVTDRRPVPDHIPRPDYALHPQGVSLEERQSKSERVIKVLTDEEKEGLKVACKLGRECLNEAAKACGPGVTTEEIDRVVHEAAIERDCYPSPLGYYKFPKSCCTSVNEVICHGIPDMRKLENGDLCNVDVTVYHRGFHGDLNETFLVGDKVDEESRKLVKVTFECLQQAIAIVKPGVKFREIGNVIQKHANANGFSVVKGYCGHGIHRLFHTAPNVPHYAKNNATGVMKAGNSFTIEPMINAGTYHDDKWPDDWTAVTRDGRRSAQFEQTLLVTDTGCEILTKRDGNRPWFMDQIEQSY” here?
A: Its value is “soluble”.

Q: Which “soluble on expression in E. coli” value does the source give for “MGSDKIHHHHHHMTDTISYQYAAPSVLQRSSDQDELFLAKYSEIEKKEAPCFFWGKLTQPYMTARCLIALSNVVQSSFNLTPAQLSMLKDPIVTAGNERLRFEGFSNCAGVYARVDVLPDGHDGEFLENGTTNVDFNAGMISALGSISKQEKVVMSVGPKEVGLYNKGEKVIERKVPLPVKWIKGLTTVQIYQSVAERMYSFNRIQTLQLFQTLPKGTVKCDYYLVMRGQKPAFSPVKSLNAVCIGGVHRLRLLEPLLPFADELRVFVHPTMQSTIWQLYFGPVRFSLSLSRECWRGFSGEGAALDALLEDVPEKWIAAMDKYSYANQQFNPTLFAIEEHIDLDKVDSLSARLAAMGLLGFDLDDNSFFYRRLPFKTERILSLNPRMIAAEKLLEEEKVEIISNDGNRTEARVAGSGGVRHTVILDRESEKERCTCTWFSGNQGERGACKHILAVKKRVQWKN” here?
A: The value was “not soluble”.

Q: For “MNAFNPTQFRAQFPALADAGVYLDSAATALKPQAVIDATHQFYCLSAGNVHRSQFAQAQRLTAQYEAARAKAARLLNAPDEKSIVWTRGTTEAINMVAQCYARPRLRPGDEIIVSVAEHHANLVPWLMVAQQTGAQVIKLPLNDRRLPDVERLPELITSRSRILALGQMSNVTGGCPDLASAISAAHAAGMVVMVDGAQGAVHFPADVQQLDIDFYAFSAHKLYGPTGIGVLYGKPELLEAMSPWLGGGKMIRDVSFEGFTTQSAPWKLEAGTPNVAGVIGLSAALEWLSDIDIEQAENWSRGLATLAEDALAKRPGFRSFRCQDSSLLAFDFVGVHHGDMVTLLAEYGIALRAGQHCAQPLLAELGVTGTLRASFAPYNTQHDVDALVNAVDRALELLVD”, which “soluble on expression in E. coli” value is on record?
A: Its value is “not soluble”.
